From publication PMC8531446, “Light-triggered and phosphorylation-dependent 14-3-3 association with NON-PHOTOTROPIC HYPOCOTYL 3 is required for hypocotyl phototropism” (Nature Communications, 2021)

Legend:
[1] = target: T1, GFP:NPH3 from N. benthamiana (Arabidopsis thaliana, UniProt Q9FMF5 1-746, phosphoserine at 744 upon blue light irradiation only (α-pS744 antibody)); test: far-Western, overlay or dot blot; anti-GFP immunoprecipitates from blue-light-treated N. benthamiana leaves (10 μmol m^-2 s^-1, 40 min) or Arabidopsis nph3-7 seedlings (1 μmol m^-2 s^-1) separated by SDS-PAGE, on nitrocellulose; overlaid with RGS(His)6-14-3-3 omega at 20 μg ml^-1 in 50 mM MOPS pH 6.5, 20% glycerol, 5 mM MgCl2, 2 mM DTT, overnight at 4 °C; anti-RGS(His)6 detection; settings: both partners purified
T1 construct: NPH3, Arabidopsis thaliana; cloned into pH7WGF2; S746 is the last residue; source: N. benthamiana leaves, transiently transformed (35S promoter), anti-GFP immunoprecipitate (GFP-Trap beads); not shown: GFP, N-terminal, kept
T1 sequence (looked up): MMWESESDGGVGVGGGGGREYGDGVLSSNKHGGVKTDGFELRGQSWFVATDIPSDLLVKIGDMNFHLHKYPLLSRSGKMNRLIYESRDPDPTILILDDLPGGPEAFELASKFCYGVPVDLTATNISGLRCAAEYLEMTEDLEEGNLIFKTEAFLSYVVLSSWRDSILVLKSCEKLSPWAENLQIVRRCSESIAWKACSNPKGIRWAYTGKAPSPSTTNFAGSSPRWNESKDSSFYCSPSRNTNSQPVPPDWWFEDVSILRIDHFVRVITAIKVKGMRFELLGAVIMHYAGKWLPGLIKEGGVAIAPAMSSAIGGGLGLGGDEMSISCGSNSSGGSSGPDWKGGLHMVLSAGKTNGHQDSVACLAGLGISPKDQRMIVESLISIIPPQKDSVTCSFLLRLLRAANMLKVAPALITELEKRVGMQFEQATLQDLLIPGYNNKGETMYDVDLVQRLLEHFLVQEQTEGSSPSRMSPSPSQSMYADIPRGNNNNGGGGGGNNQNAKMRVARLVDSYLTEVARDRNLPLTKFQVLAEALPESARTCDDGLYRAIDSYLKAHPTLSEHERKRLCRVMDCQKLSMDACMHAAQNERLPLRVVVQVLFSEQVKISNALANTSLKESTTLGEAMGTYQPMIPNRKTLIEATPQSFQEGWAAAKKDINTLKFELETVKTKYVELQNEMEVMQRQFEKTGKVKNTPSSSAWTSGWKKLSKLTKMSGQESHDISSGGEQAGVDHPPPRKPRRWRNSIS

[2] = target: T2, GFP:NPH3 from transgenic Arabidopsis nph3-7 (Arabidopsis thaliana, UniProt Q9FMF5 1-746, phosphoserine at 744 upon blue light irradiation (α-pS744 antibody); dephosphorylated on prolonged irradiation or re-transfer to darkness); test: as above; settings: both partners purified
T2 construct: NPH3, Arabidopsis thaliana; cloned into pH7WGF2; S746 is the last residue; source: Arabidopsis nph3-7 seedlings, stably expressed (35S promoter), anti-GFP immunoprecipitate (GFP-Trap beads); not shown: GFP, N-terminal, kept
T2 sequence (looked up): T1 sequence (looked up)

B1: RGS(His)6-tagged Arabidopsis 14-3-3 isoform omega (natural protein, UniProt Q01525 1-259, looked up)
chain: MASGREEFVYMAKLAEQAERYEEMVEFMEKVSAAVDGDELTVEERNLLSVAYKNVIGARRASWRIISSIEQKEESRGNDDHVTAIREYRSKIETELSGICDGILKLLDSRLIPAAASGDSKVFYLKMKGDYHRYLAEFKTGQERKDAAEHTLAAYKSAQDIANAELAPTHPIRLGLALNFSVFYYEILNSPDRACNLAKQAFDEAIAELDTLGEESYKDSTLIMQLLRDNLTLWTSDMQDDAADEIKEAAAPKPTEEQQ
notes: 14-3-3 isoform omega, Arabidopsis; cDNA in the expression vector pQE-30; also called purified recombinant 14-3-3 proteins; RGS(His)6-tagged 14-3-3; source: E. coli M15, purified (Ni2+-NTA agarose, native conditions)
binding result [1]: binds | binding result [2]: binds
